Here are results for eight molecules from patent US20140087995A1 (published 2014).

T1: human calcitonin receptor (human, UniProt P30988 25-474)
T1 construct: whole, on cells; Assay used cell membranes of the transfected BHK cells; also called hCTR; hCT
T1 sequence (looked up): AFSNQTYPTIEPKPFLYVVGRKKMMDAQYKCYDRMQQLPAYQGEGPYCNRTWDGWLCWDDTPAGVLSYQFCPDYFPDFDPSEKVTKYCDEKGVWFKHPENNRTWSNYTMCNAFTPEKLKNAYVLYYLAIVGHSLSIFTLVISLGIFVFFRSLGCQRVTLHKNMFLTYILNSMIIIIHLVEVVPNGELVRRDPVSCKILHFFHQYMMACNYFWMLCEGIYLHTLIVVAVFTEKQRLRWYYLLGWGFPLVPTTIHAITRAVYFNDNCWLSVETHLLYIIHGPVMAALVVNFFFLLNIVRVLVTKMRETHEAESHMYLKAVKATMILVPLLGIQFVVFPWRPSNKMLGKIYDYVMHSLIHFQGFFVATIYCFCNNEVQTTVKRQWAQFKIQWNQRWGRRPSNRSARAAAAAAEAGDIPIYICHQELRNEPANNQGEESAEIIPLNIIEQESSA

B1: N^α1-[2-[2-[2-[[2-[2-[2-[[(4S)-4-carboxy-4-(19-carboxynonadecanoylamino)butanoyl]amino]ethoxy]ethoxy]acetyl]amino]ethoxy]ethoxy]acetyl]-[Glu14,Arg17,Pro21,Pro27 … (peptide)
peptide: KCNTATCATQRLAEFLRHSSPNFGAIPSSTNVGSNTY
modifications: C20 diacid-gGlu-2xOEG on the alpha amino group of the N-terminal residue (Lys1); disulfide Cys2-Cys7; C-terminal amide
notes: Synthetic analogue; also called compound 19
B2: N^α1-[(4S)-4-carboxy-4-(19-carboxynonadecanoylamino)butanoyl]-[Arg17,Pro21,Pro27,Glu35]-h-amylin (peptide)
peptide: B1 peptide with E14N, N35E
modifications: C20 diacid-gGlu on the alpha amino group of the N-terminal residue (Lys1); disulfide Cys2-Cys7; C-terminal amide
notes: Synthetic analogue; also called compound 23
B3: N^α1-[(4S)-4-carboxy-4-(19-carboxynonadecanoylamino)butanoyl]-[Glu14,Arg17,Pro21,Pro27,Arg35]-h-amylin (peptide)
peptide: {C20 diacid-γGlu}-KCNTATCATQRLAEFLRHSSPNFGAIPSSTNVGSRTY-NH2
modifications: disulfide 2-7
SMILES: CC[C@H](C)[C@H](NC(=O)[C@H](C)NC(=O)CNC(=O)[C@H](Cc1ccccc1)NC(=O)[C@H](CC(N)=O)NC(=O)[C@@H]1CCCN1C(=O)[C@H](CO)NC(=O)[C@H](CO)NC(=O)[C@H](Cc1c[nH]cn1)NC(=O)[C@H](CCCNC(=N)N)NC(=O)[C@H](CC(C)C)NC(=O)[C@H](Cc1ccccc1)NC(=O)[C@H](CCC(=O)O)NC(=O)[C@H](C)NC(=O)[C@H](CC(C)C)NC(=O)[C@H](CCCNC(=N)N)NC(=O)[C@H](CCC(N)=O)NC(=O)[C@@H](NC(=O)[C@H](C)NC(=O)[C@@H]1CSSC[C@H](NC(=O)[C@H](CCCCN)NC(=O)CC[C@H](NC(=O)CCCCCCCCCCCCCCCCCCC(=O)O)C(=O)O)C(=O)N[C@@H](CC(N)=O)C(=O)N[C@@H]([C@@H](C)O)C(=O)N[C@@H](C)C(=O)N[C@@H]([C@@H](C)O)C(=O)N1)[C@@H](C)O)C(=O)N1CCC[C@H]1C(=O)N[C@@H](CO)C(=O)N[C@@H](CO)C(=O)N[C@H](C(=O)N[C@@H](CC(N)=O)C(=O)N[C@H](C(=O)NCC(=O)N[C@@H](CO)C(=O)N[C@@H](CCCNC(=N)N)C(=O)N[C@H](C(=O)N[C@@H](Cc1ccc(O)cc1)C(N)=O)[C@@H](C)O)C(C)C)[C@@H](C)O
notes: Synthetic analogue; also called compound 16
B4: N^α1-[(4S)-4-carboxy-4-(19-carboxynonadecanoylamino)butanoyl]-[Arg17,Pro21,Pro27,Pro34,Glu35]-h-amylin (peptide)
peptide: {C20 diacid-γGlu}-KCNTATCATQRLANFLRHSSPNFGAIPSSTNVGPETY-NH2
modifications: disulfide 2-7
SMILES: CC[C@H](C)[C@H](NC(=O)[C@H](C)NC(=O)CNC(=O)[C@H](Cc1ccccc1)NC(=O)[C@H](CC(N)=O)NC(=O)[C@@H]1CCCN1C(=O)[C@H](CO)NC(=O)[C@H](CO)NC(=O)[C@H](Cc1c[nH]cn1)NC(=O)[C@H](CCCNC(=N)N)NC(=O)[C@H](CC(C)C)NC(=O)[C@H](Cc1ccccc1)NC(=O)[C@H](CC(N)=O)NC(=O)[C@H](C)NC(=O)[C@H](CC(C)C)NC(=O)[C@H](CCCNC(=N)N)NC(=O)[C@H](CCC(N)=O)NC(=O)[C@@H](NC(=O)[C@H](C)NC(=O)[C@@H]1CSSC[C@H](NC(=O)[C@H](CCCCN)NC(=O)CC[C@H](NC(=O)CCCCCCCCCCCCCCCCCCC(=O)O)C(=O)O)C(=O)N[C@@H](CC(N)=O)C(=O)N[C@@H]([C@@H](C)O)C(=O)N[C@@H](C)C(=O)N[C@@H]([C@@H](C)O)C(=O)N1)[C@@H](C)O)C(=O)N1CCC[C@H]1C(=O)N[C@@H](CO)C(=O)N[C@@H](CO)C(=O)N[C@H](C(=O)N[C@@H](CC(N)=O)C(=O)N[C@H](C(=O)NCC(=O)N1CCC[C@H]1C(=O)N[C@@H](CCC(=O)O)C(=O)N[C@H](C(=O)N[C@@H](Cc1ccc(O)cc1)C(N)=O)[C@@H](C)O)C(C)C)[C@@H](C)O
notes: Synthetic analogue; also called compound 29
B5: N^α1-[(4S)-4-carboxy-4-(19-carboxynonadecanoylamino)butanoyl]-[Glu14,Arg17,Pro21,Pro26]-h-amylin (peptide)
peptide: {C20 diacid-γGlu}-KCNTATCATQRLAEFLRHSSPNFGAPLSSTNVGSNTY-NH2
modifications: disulfide 2-7
SMILES: CC(C)C[C@H](NC(=O)[C@H](CCCNC(=N)N)NC(=O)[C@H](CCC(N)=O)NC(=O)[C@@H](NC(=O)[C@H](C)NC(=O)[C@@H]1CSSC[C@H](NC(=O)[C@H](CCCCN)NC(=O)CC[C@H](NC(=O)CCCCCCCCCCCCCCCCCCC(=O)O)C(=O)O)C(=O)N[C@@H](CC(N)=O)C(=O)N[C@@H]([C@@H](C)O)C(=O)N[C@@H](C)C(=O)N[C@@H]([C@@H](C)O)C(=O)N1)[C@@H](C)O)C(=O)N[C@@H](C)C(=O)N[C@@H](CCC(=O)O)C(=O)N[C@@H](Cc1ccccc1)C(=O)N[C@@H](CC(C)C)C(=O)N[C@@H](CCCNC(=N)N)C(=O)N[C@@H](Cc1c[nH]cn1)C(=O)N[C@@H](CO)C(=O)N[C@@H](CO)C(=O)N1CCC[C@H]1C(=O)N[C@@H](CC(N)=O)C(=O)N[C@@H](Cc1ccccc1)C(=O)NCC(=O)N[C@@H](C)C(=O)N1CCC[C@H]1C(=O)N[C@@H](CC(C)C)C(=O)N[C@@H](CO)C(=O)N[C@@H](CO)C(=O)N[C@H](C(=O)N[C@@H](CC(N)=O)C(=O)N[C@H](C(=O)NCC(=O)N[C@@H](CO)C(=O)N[C@@H](CC(N)=O)C(=O)N[C@H](C(=O)N[C@@H](Cc1ccc(O)cc1)C(N)=O)[C@@H](C)O)C(C)C)[C@@H](C)O
notes: Synthetic analogue; also called compound 7
B6: N^α1-[(4S)-4-carboxy-4-(19-carboxynonadecanoylamino)butanoyl]-[Arg17,Pro21,Pro27,His34]-h-amylin (peptide)
peptide: B1 peptide with E14N, S34H
modifications: C20 diacid-gGlu on the alpha amino group of the N-terminal residue (Lys1); disulfide Cys2-Cys7; C-terminal amide
notes: Synthetic analogue; also called compound 40
B7: N^α1-[(4S)-4-carboxy-4-(19-carboxynonadecanoylamino)butanoyl]-[Arg17,Pro21,Pro27,Pro31,Glu35]-h-amylin (peptide)
peptide: {C20 diacid-γGlu}-KCNTATCATQRLANFLRHSSPNFGAIPSSTPVGSETY-NH2
modifications: disulfide 2-7
SMILES: CC[C@H](C)[C@H](NC(=O)[C@H](C)NC(=O)CNC(=O)[C@H](Cc1ccccc1)NC(=O)[C@H](CC(N)=O)NC(=O)[C@@H]1CCCN1C(=O)[C@H](CO)NC(=O)[C@H](CO)NC(=O)[C@H](Cc1c[nH]cn1)NC(=O)[C@H](CCCNC(=N)N)NC(=O)[C@H](CC(C)C)NC(=O)[C@H](Cc1ccccc1)NC(=O)[C@H](CC(N)=O)NC(=O)[C@H](C)NC(=O)[C@H](CC(C)C)NC(=O)[C@H](CCCNC(=N)N)NC(=O)[C@H](CCC(N)=O)NC(=O)[C@@H](NC(=O)[C@H](C)NC(=O)[C@@H]1CSSC[C@H](NC(=O)[C@H](CCCCN)NC(=O)CC[C@H](NC(=O)CCCCCCCCCCCCCCCCCCC(=O)O)C(=O)O)C(=O)N[C@@H](CC(N)=O)C(=O)N[C@@H]([C@@H](C)O)C(=O)N[C@@H](C)C(=O)N[C@@H]([C@@H](C)O)C(=O)N1)[C@@H](C)O)C(=O)N1CCC[C@H]1C(=O)N[C@@H](CO)C(=O)N[C@@H](CO)C(=O)N[C@H](C(=O)N1CCC[C@H]1C(=O)N[C@H](C(=O)NCC(=O)N[C@@H](CO)C(=O)N[C@@H](CCC(=O)O)C(=O)N[C@H](C(=O)N[C@@H](Cc1ccc(O)cc1)C(N)=O)[C@@H](C)O)C(C)C)[C@@H](C)O
notes: Synthetic analogue; also called compound 28
B8: N^α1-[(4S)-4-carboxy-4-(19-carboxynonadecanoylamino)butanoyl]-[Arg17,Pro21,Pro27,Arg34]-h-amylin (peptide)
peptide: B1 peptide with E14N, S34R
modifications: C20 diacid-gGlu on the alpha amino group of the N-terminal residue (Lys1); disulfide Cys2-Cys7; C-terminal amide
notes: Synthetic analogue; also called compound 39

Positions count from the first letter of the chain named. Numbered stars: 1 amine (or outer) side, 2 acyl side, 3 side chain; on linkers, the order of the positions; unused ones are H or OH. Bridge positions count the residues as written; N and C are the ends. * marks the point of attachment. C20 diacid = O=C(O)CCCCCCCCCCCCCCCCCCC(=O)*; γGlu = O=C(O)[C@H](CCC(=O)[*:2])N[*:1]

One test concerns the target T1, human calcitonin receptor. The test is described as follows: ratio IC50 hCTR / IC50 hAmylin-R of the two SPA competition assays; reference: human amylin receptor. The protocol: The resulting pellet was resuspended, homogenized and centrifuged (20.000 rpm, 15 min) in a buffer containing 20 mM Na-HEPES and 0.1 mM EDTA (pH 7.4, buffer 2). The resulting pellet was resuspended in buffer 2 and protein concentration was measured (BCA protein Assay, Pierce). The homogenate was kept cold during the whole procedure. The membranes were kept at −80° C. until use. The assay was performed in a 384 well Optiplate (PerkinElmer) in a total volume of 40 ul. Membranes were mixed with SPA beads. Final concentration of membranes 35 ng/μL final and SPA beads was 0.05 mg/well. Test-compounds were dissolved in DMSO and further diluted in assay buffer (50 mM Hepes, pH 7.4, 1 mM CaCl2, 5 mM MgCl₂, 0.1% OA and 0.02% Tween20). […] The final mixture was incubated with shaking at 400 rpm for 120 min at 25° C. prior to centrifugation (1500 rpm, 10 min). Samples were analyzed on TopCounter™ (Packard). The IC₅₀ was calculated using (one site binding competition analysis) GraphPad Prism5 as a measure of receptor affinity.
Membranes were prepared in the following way; the cells were rinsed with PBS and incubated with Versene for approximately 5 min before harvesting. The cells were flushed with PBS and the cell-suspension was centrifuged for 5 min at 1000 rpm. Cells were homogenized (Ultrathurrax) in a buffer containing 20 mM Na-HEPES and 10 mM EDTA (pH 7.4) and centrifuged at 20.000 rpm for 15 min. The resulting pellet was resuspended, homogenized and centrifuged (20.000 rpm, 15 min) in a buffer containing 20 mM Na-HEPES and 0.1 mM EDTA (pH 7.4, buffer 2). The resulting pellet was resuspended in buffer 2 and protein concentration was measured (BCA protein Assay, Pierce). The homogenate was kept cold during the whole procedure. The membranes were kept at −80° C. until use. Assay was performed in a 384 well Optiplate (PerkinElmer) in a total volume of 40 ul. Membranes were mixed with SPA beads.
As to B1, the “Ratio hCT/hAmylin binding” value was 36.7.
Consider B2, for which the “Ratio hCT/hAmylin binding” value came to 25.
Same read-out and setting: the same measure for B3: 19.1; for B4: 13.9; for B5: 16.5.
On the same count and under the same terms, the same measure for B6: 31.1.
Turning to B7, the “Ratio hCT/hAmylin binding” value is 20.5.
Same read-out and setting: under B8 stands 29.

Another test deals with T1, human calcitonin receptor. The test is described as follows: SPA radioligand competition (125I-calcitonin), membranes of BHK cells with human calcitonin receptor. A digest of the protocol: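 BHK hCTR membranes 35 ng/μL + SPA beads 0.05 mg/well; buffer 50 mM Hepes pH 7.4, 1 mM CaCl2, 5 mM MgCl₂, 0.1% OA, 0.02% Tween20. 120 min, 25° C., shaking. Scintillation count; IC50 by one-site binding competition.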
(Displacement assays read how much labelled ligand stays bound in the presence of the test substance.)
On to B1, for which the IC50 – broadly, the concentration at which inhibition is half-maximal – turned out to be 20.4 nM.
On the same count and under the same terms, under B2 stands 21.8 nM; under B3, 17.1 nM; under B4, 8.01 nM.
The same measure, in the same setting: under B5 stands 11.1 nM; under B6, 17.1 nM.
As for B7, the concentration for half-maximal inhibition (IC50) turned out to be 12.5 nM.
Still for that read-out and setting: under B8 stands 19.3 nM.
